This passage reports Kd results from patent publication US20230183318A1 (published 2023).

To fix the notation:
B1: aglycosylated PD-1 variant Q12 (JY_Q12), soluble His-tagged protein (receptor)
chain: LDSPDRPLDPPTISPALLVVTEGDQATFTCSFSQTSKSFVLNWYRISPSQQTDKLAAFPEDRSQPGQDTRFRVTQLPNGRDFHMSVVRARRQDSGTYLCVAISLAPKVQIKESLRAELRVTERRAEVPTAHPSPSPRPACQFQ
B2: glycosylated PD-1 variant JY_Q12-2 (Q34N) (receptor)
chain: B1 chain with Q34N
modifications: sugar chain at N34 (N-linked glycosylation site restored, expressed in Expi293F)
B3: glycosylated PD-1 variant JY_Q12-1 (Q25N) (receptor)
chain: B1 chain with Q25N
modifications: sugar chain at N25 (N-linked glycosylation site restored, expressed in Expi293F)
B4: JY-Q12-4 (protein)
chain: B1 chain with Q92N
B5: glycosylated PD-1 variant JY_Q12-3 (Q50N) (receptor)
chain: B1 chain with Q50N
modifications: sugar chain at N50 (N-linked glycosylation site restored, expressed in Expi293F)
B6: Q18 (protein)
chain: LDSPDRPWNPPTISPALLVVTEGDQATFTCGLPQTSESFVLNWYRIGPSQQMDKLAAFPEDRSQPGQDTRFRVTQLPNGRDFHMSVVRARRQDSGTYLCVAISLAPKVQIKESLRAELRVTERRAEVRTAHPSPSPRSAGQFQ
B7: Q10 (protein)
chain: B6 chain with G31S, P33S, G47S, V87D, T96S, R128P, S138P
B8: Q33 (protein)
chain: B1 chain with L8W, D9N, Q34R, K37E, R88G, R90Q, C140G

Numbering of substitutions follows the chain as printed. Names may count otherwise.

T1 sequence (Q9NZQ7 19-238): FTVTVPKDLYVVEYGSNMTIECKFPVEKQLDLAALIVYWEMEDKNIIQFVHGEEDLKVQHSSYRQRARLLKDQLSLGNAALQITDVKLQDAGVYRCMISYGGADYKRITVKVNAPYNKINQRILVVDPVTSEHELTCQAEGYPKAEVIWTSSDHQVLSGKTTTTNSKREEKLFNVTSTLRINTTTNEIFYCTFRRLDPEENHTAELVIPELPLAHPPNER

The first assay has as its target T1, PD-L1-streptavidin (UniProt Q9NZQ7 19-238). Nature of the assay: BLI (BLItz); Fig. 12.
Molecule B1 registered a Kd of 5.49 nM.

A further assay deals with T1, PD-L1-streptavidin. Kind of assay: BLI (BLItz).
Consider B2, for which binding was characterised by a dissociation constant (Kd) of 0.899 nM. This counts as sub-nanomolar.
With B1, the Kd stood at 11 nM.
Same read-out and setting: as for B3, the figure is 7.38 nM.
B4: the dissociation constant (Kd) worked out at 17.3 nM. Compared with the last molecule, the Kd is about 2.3-fold higher.
Still for that read-out and setting: as for B5, the figure is 3.24 nM.

The target in a further assay is T1, PD-L1-streptavidin. Kind of assay: BLI (BLItz). The source holds these as a separate data set.
As to B6, the affinity, expressed as Kd, was 46.9 nM. In other words, the double-digit nanomolar range.
As for B7, the Kd is 50.1 nM.
B8 registered a Kd of 35.1 nM.
B1: the Kd is 5.49 nM.
